Assay results from publication PMC9596381, “GPC3-Unc5 receptor complex structure and role in cell migration” (Cell, 2022).

How the values were obtained:
[1] = molecular target: T1, human glypican-3 core domain, residues 32-483 (hGPC3^core) (human, UniProt P51654 32-483, N-linked glycans at N124 and N241); test: SPR; Unc5A-D ectodomains immobilised; hGPC3^core or mGPC3^ecto injected in a 2-fold dilution series (top 4.5 uM) with Fc control protein, Nano^glue or Nano^break kept constant at 9 uM (with hGPC3^core) or 4.5 uM (with mGPC3^ecto); conditions: both partners purified
T1 construct: human glypican-3 (GPC3), core domain, residues 32-483; Only partly cleaved at the furin-like site (R355-R358); the two fragments stay covalently attached; The forward primer starts at Met1; source: HEK293T or GnTI-deficient HEK293S, transiently transfected, secreted, purified (HisTrap, SEC); not shown: His6, C-terminal, kept
T1 sequence (P51654 32-483): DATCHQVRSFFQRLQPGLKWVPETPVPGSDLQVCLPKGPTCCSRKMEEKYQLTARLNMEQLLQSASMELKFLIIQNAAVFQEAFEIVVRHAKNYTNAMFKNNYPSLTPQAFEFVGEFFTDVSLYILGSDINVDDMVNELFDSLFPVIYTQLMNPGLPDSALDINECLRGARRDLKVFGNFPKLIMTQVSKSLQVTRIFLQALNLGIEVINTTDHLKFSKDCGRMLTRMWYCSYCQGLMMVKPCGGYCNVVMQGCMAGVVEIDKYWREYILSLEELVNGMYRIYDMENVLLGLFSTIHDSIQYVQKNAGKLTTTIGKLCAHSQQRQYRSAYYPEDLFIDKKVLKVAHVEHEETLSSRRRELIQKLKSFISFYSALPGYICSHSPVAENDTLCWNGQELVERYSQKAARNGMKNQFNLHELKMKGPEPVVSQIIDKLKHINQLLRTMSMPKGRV

[2] = molecular target: T2, murine GPC3 ectodomain, residues 31-559 (mGPC3^ecto) (mouse, UniProt Q8CFZ4 31-559); test: as above; conditions: both partners purified
T2 construct: mouse glypican-3 (GPC3), residues 31-559; source: HEK293 cells, purified
T2 sequence (Q8CFZ4 31-559): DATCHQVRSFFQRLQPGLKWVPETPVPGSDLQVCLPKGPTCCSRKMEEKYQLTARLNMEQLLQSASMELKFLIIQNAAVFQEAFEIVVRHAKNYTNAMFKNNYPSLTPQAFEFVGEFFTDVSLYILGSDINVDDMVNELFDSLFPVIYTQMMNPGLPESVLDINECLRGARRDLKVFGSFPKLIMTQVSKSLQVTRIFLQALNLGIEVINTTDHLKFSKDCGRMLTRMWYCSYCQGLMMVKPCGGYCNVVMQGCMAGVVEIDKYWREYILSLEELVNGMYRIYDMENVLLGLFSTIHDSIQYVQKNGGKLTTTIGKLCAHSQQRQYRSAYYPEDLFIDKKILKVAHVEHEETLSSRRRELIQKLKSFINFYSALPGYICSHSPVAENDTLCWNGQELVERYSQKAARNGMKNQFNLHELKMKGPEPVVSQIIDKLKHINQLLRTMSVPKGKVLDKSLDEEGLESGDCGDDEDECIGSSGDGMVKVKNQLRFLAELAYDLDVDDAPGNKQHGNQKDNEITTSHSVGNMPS

binding result [1]: binds
binding result [2]: binds
B1: mouse Unc5A ectodomain, residues 1-359 (mUnc5A^ecto) (domain or fragment)
chain: not shown
modifications: biotin on the Avi-tag
notes: signal peptide in the construct; mouse Unc5A, residues 1-359; source: HEK293 cells, purified; not shown: Avi-tag, C-terminal, kept
